Measurements published in patent publication US8735129B2, “Ginsenoside glycosidase derived from the genus Terrabacter, and use thereof” (Korea Research Institute of Bioscience and Biotechnology, priority 2009, dated 2014).

Columns and labels:
[1] = Specific activity of the enzyme with pNPGlc; assay type: biochemical
Method: Specific activity was measured using 90 μl of 50 mM sodium phosphate buffer containing 2.0 mM pNPGlc (p-nitrophenyl-β-D-glucopyranoside; Sigma) at pH 7.0, and 10 μl of the diluted purified enzyme was treated at 37° C. for 20 minutes before initiation of the reaction, followed by incubation. 0.1 ml of 1 M Na2CO3 was treated for 5 minutes to terminate the reaction, and the secretion of p-nitrophenol was immediately measured at 405 nm. One unit of activity was defined as the amount of enzyme that released 1 μmol of p-nitrophenol per minute. Specific activity is expressed in units per milligram protein. Protein concentration was measured using a Bio-Rad protein staining reagent according to the protocol. All analyses were performed at least three times.

[2] = Kinetic studies (Km, Vmax) with pNPGlc; assay type: biochemical; conditions: hydrolysis of pNPGlc, 37° C., Cleland program
Method: Kinetic studies were performed with freshly purified enzyme using pNPGlc at the concentrations from 0.1 mM to 0.6 mM. Its absorbance at 405 nm was monitored at 37° C. for 20 minutes. The resulting data were used to determine Km and Vmax using the Enzyme Kinetics Program reported by Cleland.
In order to examine the substrate specificity of Bgl-gyp17, it was incubated in 50 mM sodium phosphate buffer containing 2.0 mM βα and β-type p-NP (p-nitrophenyl) and oNP (O-nitrophenyl)-glycosidase at pH 7.0 and 37° C. […] The Km and Vmax for the hydrolysis of pNPGlc by ginsenoside glycosidase were determined using 0-2 mM substrate and the enzyme kinetics program reported by Cleland. The values measured by the program were 4.24 mM and 0.10 mmol*min^−1*mg of protein^−1 for pNpGlc.

[3] = assay type: biochemical; conditions: after incubation at 45° C. for 30 minutes
Method: The thermo-dependence of the activity was assayed in 50 mM potassium phosphate buffer at various temperatures ranging from 4 to 90° C. Thermostability was tested by incubating aliquots of the enzyme in 50 mM potassium phosphate buffer for 30 minutes at different temperatures. After cooling the sample on ice for 10 minutes, residual activity was determined by a standard analysis;
The pH effect on the enzymatic activity was measured using 2.0 mM pNPGlc in the following buffer (50 mM):
Buffer: pH range of 2 to 10: KCl—HCl (pH 2), glycine-HCl (pH 3), sodium acetic acid (pH 4 and 5), sodium phosphate (pH 6 and 7), Tris-HCl (pH 8 and 9) and glycine-sodium hydroxide (pH 10).
The enzyme was incubated in each of the above mentioned buffers at 4° C. for 24 hours, and then pHPGlc was analyzed in 50 mM potassium buffer to measure the enzymatic stability according to pH change. The activity was measured by the above mentioned method.
The results were represented as an activity probability obtained at the optimum pH.
The temperature-dependent activity in the 50 mM potassium phosphate buffer was analyzed within the temperature range of 4-90° C. using 2.0 mM pNPGlc at the optimum pH for 5 minutes. […] The sample was cooled in ice for 10 minutes, and the residual activity was measured by pNPGlc analysis.

B1: Bgl-gyp17: recombinant ginsenoside glycosidase from Terrabacter Gsoil 3082, SEQ ID NO. 1, 589 residues (protein, listed as Terrebacter sp.)
chain: MDPYEDPRLPVEVRVEDLLGRLSLEEKVGLMFQTVIEAGSDGTVLEHPGSISKSPTSTVVLDKHLTHFNVHALDDPRMAARWSNALQALAERTPHGIPVTVSTDPRHAFIENVGVSFSAGAFSQWPEPLGLAALRDADAVRRFADIARQEYVAVGIRAALHPTLDLATEPRWARQAGTFGQDPDLVTELGVAYLKGFQGDSLGSGSVACTSKHFPGGGPQKDGEDAHFPYGREQVYPGGRFADHLKPFPPIIEAGTAGIMPYYGMPVDLVVDGVEIEPIGFGYNKQVVTGLLREKLGYDGVVVTDWELVNDNHVGDQVLPARAWGVEHLDPHGRMELILEAGADQFGGEECVEILLDLVAQGRVTEARVDESARRILAVKFRLGLFENPYVDEDEAAATVGRDDFREEGYAAQARSVTVLHHEGGRLPLEHGLRIYAEQVSPEAVARHGKLVDRPEDADVAVVRLTAPFDPRSDLFLESWFHQGSLDFPPGLVARLERIAAVCPLVVDVVLDRPAVLTPLLRFASAVVGSFGSCDDALLDALTGTIAPVGRLPFDLPRSMDQVRAHGEDVPGYDDPLFPFGHGLRLDTE
modifications: PEPTIDE (1)..(589) amino acid sequence of Bgl-gyp17
notes: 1, 589 residues
specific activity at 100% ([1]; control without metal ions or reagents, Table 5): ^aThe specific activity at 100% was 44.3 U/mg. | Specific activity (U/mg) ([1]; purification step: Crude extract): 23.4 U/mg | Specific activity (U/mg) ([1]; purification step: DEAE-cellulose purification): 65.8 U/mg | Specific activity (U/mg) ([1]; purification step: Ni purification): 65.0 U/mg | Km [2]: 4.24 mM | Vmax [2]: 0.10 mmol*min^−1*mg of protein^−1 | loss of activity [3]: approximately 32%
